Consider one molecule from paper PMC11342335, “An anti-sortilin affibody-peptide fusion inhibits sortilin-mediated progranulin degradation” (Frontiers in Immunology, 2024).

Assay [1] has as its target T1, human sortilin (R&D Systems, 3154-ST) (human, UniProt Q99523 78-755).
T1 construct: sortilin, human, recombinant protein bought from R&D Systems (3154-ST); also called hSort; SORT1; source: bought: R&D Systems (3154-ST)
T1 sequence (looked up): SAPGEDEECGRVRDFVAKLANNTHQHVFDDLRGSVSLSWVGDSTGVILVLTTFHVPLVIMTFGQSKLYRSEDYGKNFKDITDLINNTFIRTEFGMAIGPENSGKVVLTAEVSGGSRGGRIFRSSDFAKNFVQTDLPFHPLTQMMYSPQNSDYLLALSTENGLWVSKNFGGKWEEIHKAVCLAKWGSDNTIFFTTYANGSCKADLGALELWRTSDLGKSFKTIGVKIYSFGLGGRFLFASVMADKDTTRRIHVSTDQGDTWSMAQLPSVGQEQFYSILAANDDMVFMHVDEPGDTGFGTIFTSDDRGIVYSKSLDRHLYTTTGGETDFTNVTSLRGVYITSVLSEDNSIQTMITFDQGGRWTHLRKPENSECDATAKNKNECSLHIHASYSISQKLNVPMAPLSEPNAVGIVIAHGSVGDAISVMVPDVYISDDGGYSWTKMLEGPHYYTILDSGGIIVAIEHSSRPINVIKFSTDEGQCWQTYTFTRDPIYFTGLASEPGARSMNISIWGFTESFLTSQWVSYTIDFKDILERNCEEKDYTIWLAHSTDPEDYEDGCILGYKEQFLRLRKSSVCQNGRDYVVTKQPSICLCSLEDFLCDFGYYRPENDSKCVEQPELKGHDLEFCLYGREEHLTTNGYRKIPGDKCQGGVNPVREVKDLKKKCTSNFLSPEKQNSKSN
Kind of assay: SPR; Biacore 8K, affinity determination of second-generation constructs; 30-100 RU of ABD035-containing constructs captured on immobilised HSA (CM5); 1-200 nM human sortilin injected 180 s at 30 µl/min, 25°C, PBST; 60 min dissociation; 1:1 Langmuir fit; apparent constants; n=3 technical replicates. The settings on record: both partners purified. (In general: In SPR one partner is held on a chip, and binding of the other changes the refractive index at the surface.)

The target of assay [2] is T2, sortilin on the surface of U-251 and PC-3 cells (human (endogenous in U-251 and PC-3), UniProt Q99523 78-831).
T2 sequence (looked up): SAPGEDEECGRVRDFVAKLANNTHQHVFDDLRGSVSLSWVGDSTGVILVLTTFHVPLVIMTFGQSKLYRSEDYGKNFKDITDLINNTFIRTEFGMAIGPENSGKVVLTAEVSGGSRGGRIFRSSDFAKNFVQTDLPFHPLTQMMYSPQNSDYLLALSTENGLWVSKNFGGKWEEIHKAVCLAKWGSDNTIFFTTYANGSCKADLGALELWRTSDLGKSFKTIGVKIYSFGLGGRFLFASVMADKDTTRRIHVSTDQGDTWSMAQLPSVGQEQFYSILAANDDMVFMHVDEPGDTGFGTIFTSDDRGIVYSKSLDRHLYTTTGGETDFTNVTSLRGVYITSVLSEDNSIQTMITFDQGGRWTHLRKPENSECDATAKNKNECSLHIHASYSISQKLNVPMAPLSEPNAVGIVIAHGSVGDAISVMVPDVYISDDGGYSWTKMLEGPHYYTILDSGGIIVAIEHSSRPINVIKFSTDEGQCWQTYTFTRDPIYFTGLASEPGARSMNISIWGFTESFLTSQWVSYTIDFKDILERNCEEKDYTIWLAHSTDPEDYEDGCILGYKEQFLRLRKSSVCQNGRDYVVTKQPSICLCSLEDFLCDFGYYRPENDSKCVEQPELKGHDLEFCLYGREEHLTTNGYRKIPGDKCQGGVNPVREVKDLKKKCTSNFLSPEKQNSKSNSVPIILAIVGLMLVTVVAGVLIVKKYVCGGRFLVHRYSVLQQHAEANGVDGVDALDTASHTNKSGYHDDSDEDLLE
Kind of assay: cell-based or functional assay.

Where only a bound is given, the exact number is not on record here.

B1: ABD-PGRNC21* (His6-ABD035-PGRNC21*) (peptide, UniProt P28799 573-593, looked up)
chain: LRREAPRWDAPLRDPGLRQLL
notes: progranulin (PGRN), human, the 21 C-terminal residues L573-L593 (PGRNC21) with A588G (PGRNC21*); numbers count from the start codon; also called the PGRN C-terminus; PGRNC alone; source: E. coli BL21 Star, purified (IMAC, HisPur Cobalt); not shown: ABD035, N-terminal, kept
For orientation: koff means the rate constant with which the complex falls apart. As a reminder, the kon is a measure of how fast the partners come together. In the case of B1, in assay [1], the Kd was found to be 0.0159 µM, the koff stood at 0.00337 s⁻¹ and the kon was determined as 212000 M⁻¹ s⁻¹. Further, the “PGRN clearance assay: fold increase of extracellular PGRN (ELISA) against untreated U-251 cells after 72 h, at the highest tested concentration (500 nM); no plateau, no EC50” value in assay [2] was at most 1.44 fold.
